One data set addresses T1, 101B62.
T1 construct: also called LHD101B62
T1 chain: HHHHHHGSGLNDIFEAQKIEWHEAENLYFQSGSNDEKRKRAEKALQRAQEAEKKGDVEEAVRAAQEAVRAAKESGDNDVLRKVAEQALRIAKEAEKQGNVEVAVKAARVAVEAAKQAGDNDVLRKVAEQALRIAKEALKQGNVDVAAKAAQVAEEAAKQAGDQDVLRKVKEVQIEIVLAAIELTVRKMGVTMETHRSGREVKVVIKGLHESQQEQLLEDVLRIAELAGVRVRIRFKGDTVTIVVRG
The experiment in a line: SEC of mixed components; linear tetramer listed in Table 6, neighbours in the chain. Here is the method:
(§1) Complexes and individual components were diluted in 20 mM Tris pH 8.0, 100 mM NaCl. After o/n equilibration of the mixtures at room temperature or 4 degrees C., 500 ul of sample was injected onto a Superdex™ 200 10/300 increase GL (dimers, linear assemblies) or Superose™ 6 increase 10/300 GL (symmetric assemblies) (all columns from GE healthcare) using the absorbance at 230 nm or 473 nm (for GFP tagged components) as read-out. Dimers were mixed at monomer concentrations of 5 μM or higher. Trimer and ABCD tetramer mixtures contained 5 μM of the bivalent connector, and 7.5 μM of each terminal cap (lower absolute concentrations with the same ratios were used for some trimers). ABCA tetramer mixtures contained 5 μM per bivalent connector and 15 μM terminal cap. The hexamer mixture contained 3 μM of components C and D, 3.6 μM of B and E, and 4.4 μM of A and F. The branched assembly shown in FIG. 4A contained 2.8 μM of the trivalent connector and 4 μM of each cap. For the exchange experiment shown in FIG. 5A, the ABC trimer was preincubated at concentrations of 6 μM B and 9 μM each of A and C. C′ was then added to reach a final concentration of 2 μM B, 3 μM each of A and C, and 6 μM C′.

The target of a further data set is T2, DF275A-1.
T2 construct: Bivalent connector
T2 chain: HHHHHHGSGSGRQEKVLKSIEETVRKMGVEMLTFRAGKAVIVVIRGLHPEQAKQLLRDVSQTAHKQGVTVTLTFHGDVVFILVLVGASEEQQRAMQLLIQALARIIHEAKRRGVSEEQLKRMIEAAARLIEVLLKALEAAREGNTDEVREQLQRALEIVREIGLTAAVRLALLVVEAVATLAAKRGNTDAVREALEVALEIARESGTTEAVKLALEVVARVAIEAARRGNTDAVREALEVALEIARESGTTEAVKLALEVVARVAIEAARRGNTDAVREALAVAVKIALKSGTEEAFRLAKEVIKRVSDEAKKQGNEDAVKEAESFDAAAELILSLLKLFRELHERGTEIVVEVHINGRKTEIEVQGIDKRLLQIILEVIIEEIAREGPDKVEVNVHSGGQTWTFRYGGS
The experiment in a line: SEC of mixed components; trimer listed in Table 6. Here is the method:
as §1

The target in a further data set is T3, DFA0.
T3 construct: Bivalent connector
T3 chain: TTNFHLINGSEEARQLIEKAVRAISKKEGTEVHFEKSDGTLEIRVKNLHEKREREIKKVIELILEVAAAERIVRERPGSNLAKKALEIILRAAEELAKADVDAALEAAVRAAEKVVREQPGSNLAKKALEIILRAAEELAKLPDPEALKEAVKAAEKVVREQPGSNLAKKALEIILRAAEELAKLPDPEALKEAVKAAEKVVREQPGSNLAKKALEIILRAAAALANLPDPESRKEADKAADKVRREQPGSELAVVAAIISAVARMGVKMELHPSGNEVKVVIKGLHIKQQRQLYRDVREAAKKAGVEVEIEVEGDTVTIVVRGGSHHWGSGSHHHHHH
Kind of data set: SEC of mixed components; trimer listed in Table 6. Here is the method:
as §1

The target of the next data set is T4, LHD274 B62.
T4 construct: also called LHD274 B DHR62 C
T4 single chain, LHD274 chain B fused to DHR62: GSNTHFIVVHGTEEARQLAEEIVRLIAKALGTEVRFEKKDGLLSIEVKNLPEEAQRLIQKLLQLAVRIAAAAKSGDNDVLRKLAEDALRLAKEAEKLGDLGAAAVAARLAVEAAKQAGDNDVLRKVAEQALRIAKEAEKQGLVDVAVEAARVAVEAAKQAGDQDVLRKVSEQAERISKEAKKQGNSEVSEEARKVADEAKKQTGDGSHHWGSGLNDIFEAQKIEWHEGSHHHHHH
The experiment in a line: SEC binding assay (Superdex 200, normalised A230) of A, B and the mixture AB. Here is the method: as §1

A further data set addresses T5, 274B53.
T5 construct: also called LHD274B DHR53 stop
T5 chain: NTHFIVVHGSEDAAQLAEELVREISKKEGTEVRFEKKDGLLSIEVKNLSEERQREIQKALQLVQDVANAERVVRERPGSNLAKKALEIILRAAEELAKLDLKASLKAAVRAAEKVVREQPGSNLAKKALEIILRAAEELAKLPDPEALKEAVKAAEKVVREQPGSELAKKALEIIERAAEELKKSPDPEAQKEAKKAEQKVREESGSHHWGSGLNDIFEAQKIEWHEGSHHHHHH
The data set is described as above. Here is the method:
as §1

A further data set concerns the target T6, DFX.
T6 construct: Bivalent connector
T6 chain: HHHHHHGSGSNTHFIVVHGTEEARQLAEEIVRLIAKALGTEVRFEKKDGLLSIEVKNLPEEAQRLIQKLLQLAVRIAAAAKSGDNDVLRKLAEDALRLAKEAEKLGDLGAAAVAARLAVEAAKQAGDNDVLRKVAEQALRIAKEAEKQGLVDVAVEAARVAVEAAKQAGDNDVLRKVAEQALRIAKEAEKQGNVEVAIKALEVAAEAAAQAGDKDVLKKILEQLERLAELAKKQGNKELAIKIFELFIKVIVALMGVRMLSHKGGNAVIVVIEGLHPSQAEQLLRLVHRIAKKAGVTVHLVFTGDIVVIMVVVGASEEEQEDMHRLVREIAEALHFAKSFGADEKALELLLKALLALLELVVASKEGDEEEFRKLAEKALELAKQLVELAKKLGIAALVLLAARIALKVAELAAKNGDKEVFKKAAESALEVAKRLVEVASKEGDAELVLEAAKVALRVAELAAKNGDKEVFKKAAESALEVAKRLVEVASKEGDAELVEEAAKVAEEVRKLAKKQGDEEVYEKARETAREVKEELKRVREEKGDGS
Kind of data set: negative-stain EM of the heterotrimer; components named in the legend. Here is the method: (§2) SEC peak fractions were concentrated prior to negative stain EM screening. Samples were then immediately diluted 5 to 150 times in TBS buffer (25 mM Tris pH 8.0, 25 mM NaCl) depending on sample concentration. A final volume of 5 μL was applied to negatively glow discharged, carbon-coated 400-mesh copper grids (01844-F, TedPella, Inc.), then washed with Milli-Q™ Water and stained using 0.75% uranyl formate as previously described (53). Air-dried grids were imaged on a FEI Talos L120C TEM (FEI Thermo Scientific, Hillsboro, OR) equipped with a 4K×4K Gatan OneView™ camera at a magnification of 57,000× and pixel size of 2.51. Micrographs were imported into CisTEM software or cryoSPARC™ software and a circular blob picker was used to select particles which were then subjected to 2D classification. Ab initio reconstruction and homogeneous refinement in Cn symmetry were used to generate 3D electron density maps (54, 55).

Data set [1] deals with the molecule itself. The experiment in a line: SEC titration of the protomer alone at several injection concentrations (Superdex 200, normalised A230); self-association.
The target of the next data set is T7, TF10.
T7 construct: Trivalent connector
T7 chain: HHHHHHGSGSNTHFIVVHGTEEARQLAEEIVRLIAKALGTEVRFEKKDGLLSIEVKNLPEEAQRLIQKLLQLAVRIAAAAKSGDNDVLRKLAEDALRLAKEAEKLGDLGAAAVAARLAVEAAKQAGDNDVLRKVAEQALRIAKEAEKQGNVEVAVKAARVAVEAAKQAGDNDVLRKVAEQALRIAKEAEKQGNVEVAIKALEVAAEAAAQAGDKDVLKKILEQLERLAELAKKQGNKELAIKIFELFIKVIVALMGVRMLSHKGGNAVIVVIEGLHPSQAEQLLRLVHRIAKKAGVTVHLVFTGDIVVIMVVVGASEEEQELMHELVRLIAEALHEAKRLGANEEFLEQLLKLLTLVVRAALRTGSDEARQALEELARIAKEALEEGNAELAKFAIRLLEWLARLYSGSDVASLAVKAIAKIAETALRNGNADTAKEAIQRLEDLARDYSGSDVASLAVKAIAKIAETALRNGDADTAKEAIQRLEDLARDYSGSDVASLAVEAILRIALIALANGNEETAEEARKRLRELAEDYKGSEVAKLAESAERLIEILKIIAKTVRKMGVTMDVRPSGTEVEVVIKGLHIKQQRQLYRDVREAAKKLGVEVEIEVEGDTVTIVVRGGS
Kind of data set: SEC (A230) of A---, -BCD and ABCD and negative-stain EM; components named in the legend of FIG. 17A, which paragraph 104 ties to FIG. 4A. Here is the method:
as §1
as §2, with “Ab initio reconstruction and homogeneous refinement in Cn symmetry were used to generate 3D electron density maps (54, 55).” left out

B1: DFB0 (designed binder)
chain: NTHFIVVHGSEDAAQLAEELVREISKKEGTEVRFEKKDGLLSIEVKNLSEERQREIQKALQLVQDVANAERVVRERPGSNLAKKALEIILRAAEELAKLDLKASLKAAVRAAEKVVREQPGSNLAKKALEIILRAAEELAKLPDPEALKEAVKAAEKVVREQPGSNLAKKALEIILRAAEELAKLPDPEALKEAVKAAEKVVREQPGSNLAKKALEIILRAAAALANLPDPESRKEADKAADKVRREQPGSELAVVAAIISAVARMGVKMELHPSGNEVKVVIKGLHIKQQRQLYRDVREAAKKAGVEVEIEVEGDTVTIVVRGGSHHWGSGSHHHHHH
notes: Bivalent connector
On to B1, for which the binding result in the data set with 101B62 was “binds”.

B2: DF206 (designed binder)
chain: NTHFIVVHGTEEARQLAEEIVRLIAEALGTEVRFEKKDGLLSIEVKNLPEEAQRLIQKLLQLAVRIAAAAESGDNDQLRELAEDALRLAEEAEKLGDLGAAAVAARLAVEAAKQAGDNDVLREVAEQALEIAKEAEKQGLVDVAVEAARVAVEAAKQAGDNDVLRKVAEQALRIAKEAEKQGNVEVAVKAARVAVEAAKQAGDNDVLRKVAEQALRIAKEAEKQGNVEVAALALVVAVNAAQAAGDQDLLRKIAEQAERLAKLAEKQGRRDVALLASIIALVAKMGVPMEVHPSGNEVKVVIKGLHKSQQEQLLKEVLKAANKLGVNVHISFRGDTVTIRVRGGGSHHWGSGSHHHHHH
notes: Bivalent connector
As to B2, in the data set with DF275A-1, the binding result is “binds”.

B3: 206B62-2 (designed binder)
chain: HHHHHHGSGLNDIFEAQKIEWHEAENLYFQSGSNDEKRKRAEKALQRAQEAEKKGDVEEAVRAAQEAVRAAKESGDNDVLRKVAEQALRIAKEAEKQGNVEVAVKAARVAVEAAKQAGDNDVLRKVAEQALRIAKEAEKQGNVPVAVKALLVALNAAVAAGDQDVLRKISEQAERARKLAEKQGDKLLAFVLALISLVAQMGVPMEIHPSGNEVKVVIKGLHKSQQEQLLKLVLKLANKLGVNVHISFRGDTVTIRVRGGS
For the molecule B3, the binding result in the data set with DF275A-1 is reported as “binds”.

B4: 101B82 (designed binder)
chain: HHHHHHGSGLNDIFEAQKIEWHEAENLYFQSGSDEEVQEAVERAEELREEAEELIKKARKTGDAELLRKALEALEEAVRAVEEAIKRNPDNDEAVETAVRLARELKKVAEELQERAKKTGDAELLKLALRALEVAVRAVELAIKSNPDNDEAVETAVRLARELAKVAEELIERAKKTGDKELLKLAKRALEVAMRAVSLALKSNPDNEEARRVAAELVLLVIRAAVIEMGVTMEEHRSGNRVKVVIKGLHESQQEQLLEDVLRAAEIAGVRVRIRFKGDTVTIVVEG
For B4, the binding result in the data set with DFA0 is “binds”.

B5: LHD274 A64 (designed binder)
single chain, LHD274 chain A fused to DHR64: GSTTNFHLINGSEEARQLIQKAVEAISKKEGTEVHFEKSDGTLEIRVKNLHPRQEDLIKKFIEALLLALVAKGELEQAEKEGDAEVALRAVEKVVRVAELLLRLAKEAGSEEALKAALEIAEQAARLAKRVLELAEKQGDAEVALRAVELVVRVAELLLRIAKESGSEEALERALRVAEEAARLAKRVLELAEKQGDAEVARRAVELVKRVAELLERIARESGSEEAKERAERVREEARELQERVKELREREGDGSHHWGSGLNDIFEAQKIEWHEGSHHHHHH
Consider B5, for which the binding result with LHD274 B62 and with 274B53 was “binds” each time.

B6: 317B (designed binder)
chain: GGSDVEWRFTNVSEEEQEKLARFVLQVAQLAGTQVIFTTRPGELRIRVHNLDELLALAIELYAQGLRLGDKHVQHLAKKAIEAILRGDRKLARFLLEAARAMSRATERPGSNLAKKALEEILRLAEELAKDPDPESLKAAVHCAEFVVRYQPGSNLAKKALEIILRAAEELAKLPDPEALKEAVKAAEKVVREQPGSELAKKALEIIERAAEELKKSPDPEAQKEAKKAEQKVREERPGSGGSGSHHWGSGSHHHHHH
notes: also called LHD317 B; LHD317B
Regarding B6, the binding result (with DFX; in data set [1]; with TF10) was “binds” in each case.
